Paper PMC12476836
Read-outs that look alike come from different tables or passages of the source.

Tests used:
[1] = biological target: FLAG-GFP-SLiM DDSVFA (FGFR3); experiment: BioID2 proximity labeling (streptavidin immunoblot quantification); details: n = 3, FLAG-GFP-SLiM +DDSVFA (FGFR3)
[2] = biological target: FLAG-GFP-SLiM with the predicted DDVF-like motif of TMEM139; experiment: as above; details: n = 3; FLAG-GFP-SLiM +DDSVFY (TMEM139); parent: est. 2.4; read off a plot
[3] = biological target: FLAG-GFP-SLiM EDSVFS (FGFR1); experiment: as above; details: n = 3, FLAG-GFP-SLiM +EDSVFS (FGFR1)
[4] = biological target: FLAG-GFP-SLiM with the predicted DDVF motif of GTSE1; experiment: as above; details: n = 3, FLAG-GFP-SLiM +DDEVFF (GTSE1)
[5] = biological target: FLAG-GFP-SLiM with the predicted DDVF-like motif of PTPN3; experiment: as above; details: n = 3; FLAG-GFP-SLiM +TEDVFY (PTPN3); parent: est. 1.6; read off a plot
[6] = biological target: FLAG-GFP-SLiM with the predicted DDVF-like motif of TRM9B; experiment: as above; details: n = 3; FLAG-GFP-SLiM +DEEVFV (TRM9B); parent: est. 1.2; read off a plot
[7] = biological target: FLAG-GFP-SLiM DDSVFS (FGFR2); experiment: as above; details: n = 3, FLAG-GFP-SLiM +DDSVFS (FGFR2)
[8] = biological target: unnamed; experiment: affinities annotated in the ELM database (various methods, AffinityMin); details: cited from earlier work
[9] = biological target: unnamed; details: cited from earlier work
[10] = biological target: unnamed; details: cited from earlier work; remark: listed apart in the source
Target sequence in this assay (P12004 127-254): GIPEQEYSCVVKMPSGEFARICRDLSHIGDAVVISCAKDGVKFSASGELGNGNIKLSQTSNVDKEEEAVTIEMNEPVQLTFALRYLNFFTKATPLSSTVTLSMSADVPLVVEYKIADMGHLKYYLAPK

Sequence of O75367 (O75367 whole entry, looked up): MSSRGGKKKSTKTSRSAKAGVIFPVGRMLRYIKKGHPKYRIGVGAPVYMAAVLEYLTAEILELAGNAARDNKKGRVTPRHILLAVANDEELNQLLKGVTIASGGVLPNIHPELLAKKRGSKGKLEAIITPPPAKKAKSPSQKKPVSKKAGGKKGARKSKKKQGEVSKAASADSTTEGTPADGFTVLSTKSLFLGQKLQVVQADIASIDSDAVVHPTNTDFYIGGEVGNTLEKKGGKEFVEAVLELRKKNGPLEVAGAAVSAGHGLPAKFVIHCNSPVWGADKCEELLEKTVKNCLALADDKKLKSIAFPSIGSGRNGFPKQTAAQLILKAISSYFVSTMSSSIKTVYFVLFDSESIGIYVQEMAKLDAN
Sequence of P61081 (P61081 whole entry, looked up): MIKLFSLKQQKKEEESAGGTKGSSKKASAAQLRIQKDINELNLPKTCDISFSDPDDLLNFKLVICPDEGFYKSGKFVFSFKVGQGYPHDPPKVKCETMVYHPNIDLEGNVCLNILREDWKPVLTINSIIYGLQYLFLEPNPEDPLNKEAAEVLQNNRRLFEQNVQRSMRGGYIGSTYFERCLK
Sequence of P06400 (P06400 whole entry, looked up): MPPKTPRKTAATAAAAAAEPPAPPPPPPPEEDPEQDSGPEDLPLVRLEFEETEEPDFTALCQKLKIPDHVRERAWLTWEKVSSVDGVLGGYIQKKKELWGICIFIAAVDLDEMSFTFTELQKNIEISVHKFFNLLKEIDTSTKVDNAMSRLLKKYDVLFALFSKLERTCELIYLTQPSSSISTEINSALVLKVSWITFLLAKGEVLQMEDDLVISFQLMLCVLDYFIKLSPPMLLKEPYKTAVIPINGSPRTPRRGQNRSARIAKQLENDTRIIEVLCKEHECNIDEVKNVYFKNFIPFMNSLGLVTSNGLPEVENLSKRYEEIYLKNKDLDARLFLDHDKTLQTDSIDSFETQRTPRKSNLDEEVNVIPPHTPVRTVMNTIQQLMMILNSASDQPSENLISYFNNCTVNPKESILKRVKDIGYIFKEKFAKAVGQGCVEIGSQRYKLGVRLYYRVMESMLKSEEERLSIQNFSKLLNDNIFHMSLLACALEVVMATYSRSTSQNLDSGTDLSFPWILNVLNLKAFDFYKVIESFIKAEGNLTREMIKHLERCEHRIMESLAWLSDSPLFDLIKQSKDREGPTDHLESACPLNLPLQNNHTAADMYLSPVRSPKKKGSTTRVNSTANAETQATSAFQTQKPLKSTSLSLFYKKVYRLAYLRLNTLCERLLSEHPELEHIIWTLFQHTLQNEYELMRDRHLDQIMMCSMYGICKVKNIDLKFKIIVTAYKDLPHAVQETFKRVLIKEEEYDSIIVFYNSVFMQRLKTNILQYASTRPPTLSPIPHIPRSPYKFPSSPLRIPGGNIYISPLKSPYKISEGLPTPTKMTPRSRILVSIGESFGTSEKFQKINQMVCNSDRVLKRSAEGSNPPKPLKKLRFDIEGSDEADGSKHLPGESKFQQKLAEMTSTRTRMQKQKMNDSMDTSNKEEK
Sequence of P14784 (P14784 whole entry, looked up): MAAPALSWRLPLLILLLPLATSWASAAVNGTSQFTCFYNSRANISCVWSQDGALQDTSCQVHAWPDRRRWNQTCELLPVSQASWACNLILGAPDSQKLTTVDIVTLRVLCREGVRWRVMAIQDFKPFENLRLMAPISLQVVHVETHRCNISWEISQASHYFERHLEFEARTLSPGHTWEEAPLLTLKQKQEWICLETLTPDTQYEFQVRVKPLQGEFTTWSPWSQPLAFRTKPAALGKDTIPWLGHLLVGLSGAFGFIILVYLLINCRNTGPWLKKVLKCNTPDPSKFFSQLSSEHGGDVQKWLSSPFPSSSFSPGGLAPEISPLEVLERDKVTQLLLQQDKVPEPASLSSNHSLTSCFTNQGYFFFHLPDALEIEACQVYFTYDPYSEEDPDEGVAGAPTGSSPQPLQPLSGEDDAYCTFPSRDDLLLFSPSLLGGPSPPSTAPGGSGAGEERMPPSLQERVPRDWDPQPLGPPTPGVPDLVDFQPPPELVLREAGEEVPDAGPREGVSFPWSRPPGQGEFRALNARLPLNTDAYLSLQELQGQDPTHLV
Sequence of P30279 (P30279 whole entry, looked up): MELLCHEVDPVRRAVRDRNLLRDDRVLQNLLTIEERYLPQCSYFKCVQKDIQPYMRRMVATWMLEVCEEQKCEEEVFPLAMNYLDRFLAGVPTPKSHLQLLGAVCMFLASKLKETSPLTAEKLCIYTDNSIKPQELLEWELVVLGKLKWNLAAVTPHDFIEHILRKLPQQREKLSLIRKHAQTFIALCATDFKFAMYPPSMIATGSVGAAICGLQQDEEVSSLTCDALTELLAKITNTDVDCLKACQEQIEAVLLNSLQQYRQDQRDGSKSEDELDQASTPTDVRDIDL
Sequence of Q86VZ6 (Q86VZ6 whole entry, looked up): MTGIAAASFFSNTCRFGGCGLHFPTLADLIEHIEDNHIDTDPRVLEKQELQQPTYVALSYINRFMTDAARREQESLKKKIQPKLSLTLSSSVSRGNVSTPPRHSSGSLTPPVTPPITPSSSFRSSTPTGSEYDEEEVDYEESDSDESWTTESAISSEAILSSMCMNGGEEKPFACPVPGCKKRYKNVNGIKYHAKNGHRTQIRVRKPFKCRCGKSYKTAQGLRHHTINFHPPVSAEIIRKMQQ
Sequence of Q01094 (Q01094 whole entry, looked up): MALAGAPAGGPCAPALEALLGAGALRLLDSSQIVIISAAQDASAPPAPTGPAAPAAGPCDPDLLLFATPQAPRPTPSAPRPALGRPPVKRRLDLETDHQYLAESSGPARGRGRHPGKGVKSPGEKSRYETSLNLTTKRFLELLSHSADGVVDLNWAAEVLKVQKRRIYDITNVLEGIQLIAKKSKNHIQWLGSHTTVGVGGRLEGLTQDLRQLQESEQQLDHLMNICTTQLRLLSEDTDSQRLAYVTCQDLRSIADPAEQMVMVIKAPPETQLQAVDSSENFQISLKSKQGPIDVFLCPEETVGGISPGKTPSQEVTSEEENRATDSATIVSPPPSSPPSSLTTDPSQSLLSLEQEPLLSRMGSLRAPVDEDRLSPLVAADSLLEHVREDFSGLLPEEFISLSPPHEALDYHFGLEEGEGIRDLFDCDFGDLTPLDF
Sequence of Q96AE4 (Q96AE4 whole entry, looked up): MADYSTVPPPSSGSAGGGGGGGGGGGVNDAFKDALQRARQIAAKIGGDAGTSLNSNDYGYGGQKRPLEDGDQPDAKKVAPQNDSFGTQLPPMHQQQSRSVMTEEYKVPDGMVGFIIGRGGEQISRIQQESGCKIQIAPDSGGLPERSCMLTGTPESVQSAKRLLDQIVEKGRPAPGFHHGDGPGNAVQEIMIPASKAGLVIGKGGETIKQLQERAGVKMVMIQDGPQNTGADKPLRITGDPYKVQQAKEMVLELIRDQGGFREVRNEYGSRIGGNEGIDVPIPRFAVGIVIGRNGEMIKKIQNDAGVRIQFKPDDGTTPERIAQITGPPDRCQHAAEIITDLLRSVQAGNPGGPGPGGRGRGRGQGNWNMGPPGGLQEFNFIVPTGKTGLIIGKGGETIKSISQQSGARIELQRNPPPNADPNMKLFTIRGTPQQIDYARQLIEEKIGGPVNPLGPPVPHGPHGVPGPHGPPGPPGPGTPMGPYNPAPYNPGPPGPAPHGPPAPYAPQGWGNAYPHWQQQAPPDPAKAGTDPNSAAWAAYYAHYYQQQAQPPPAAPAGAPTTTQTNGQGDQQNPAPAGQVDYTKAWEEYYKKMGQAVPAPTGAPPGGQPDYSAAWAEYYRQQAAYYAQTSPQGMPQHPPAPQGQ
Sequence of Q13137 (Q13137 whole entry, looked up): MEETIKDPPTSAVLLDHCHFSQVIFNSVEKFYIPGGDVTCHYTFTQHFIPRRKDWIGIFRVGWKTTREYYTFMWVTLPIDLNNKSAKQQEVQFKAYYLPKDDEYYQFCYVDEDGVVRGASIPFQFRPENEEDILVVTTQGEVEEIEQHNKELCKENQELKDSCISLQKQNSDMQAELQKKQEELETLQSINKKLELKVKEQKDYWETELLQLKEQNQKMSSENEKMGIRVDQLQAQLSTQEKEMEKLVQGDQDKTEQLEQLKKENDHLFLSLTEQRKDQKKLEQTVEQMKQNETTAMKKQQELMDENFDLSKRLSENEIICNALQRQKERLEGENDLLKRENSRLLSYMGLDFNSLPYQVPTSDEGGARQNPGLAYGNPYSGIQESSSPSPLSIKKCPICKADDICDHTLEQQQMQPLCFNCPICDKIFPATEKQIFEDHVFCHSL
Sequence of P01042 (P01042 whole entry, looked up): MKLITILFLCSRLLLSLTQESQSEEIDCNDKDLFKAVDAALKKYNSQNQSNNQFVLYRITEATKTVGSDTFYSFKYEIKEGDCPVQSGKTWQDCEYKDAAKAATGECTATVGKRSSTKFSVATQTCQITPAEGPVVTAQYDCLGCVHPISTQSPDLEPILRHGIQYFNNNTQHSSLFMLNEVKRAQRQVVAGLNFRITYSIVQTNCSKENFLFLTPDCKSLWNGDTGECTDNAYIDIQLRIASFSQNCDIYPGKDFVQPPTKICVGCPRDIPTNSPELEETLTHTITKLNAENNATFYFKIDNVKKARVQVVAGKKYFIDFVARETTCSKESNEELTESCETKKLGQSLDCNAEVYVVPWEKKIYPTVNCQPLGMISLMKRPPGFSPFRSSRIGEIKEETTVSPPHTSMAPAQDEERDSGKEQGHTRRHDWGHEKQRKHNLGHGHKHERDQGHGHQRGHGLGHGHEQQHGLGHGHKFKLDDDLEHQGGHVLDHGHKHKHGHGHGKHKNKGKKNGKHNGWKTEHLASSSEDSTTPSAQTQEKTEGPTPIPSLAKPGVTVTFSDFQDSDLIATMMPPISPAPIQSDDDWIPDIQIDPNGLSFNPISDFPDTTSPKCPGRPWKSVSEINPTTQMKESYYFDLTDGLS

Substance	Kd [8] [nM]	also measured
HA-RSK(WT)-BioID2 (wild-type human RSK2, ribosomal protein S6 kinase A3, fused to BioID2) (from UniProt P51812) KAKLGM-to-KSEPPY	–	ratio to parent ([1]; marked *): 2.4 fold; response (normalized biotin/FLAG) ([1]; parent: est. 1.0, read off a plot): 0.43; response (normalized biotin/FLAG) [2]: 0.4; ratio to parent ([3]; marked *): 2.4 fold; response (normalized biotin/FLAG) ([3]; parent: est. 1.4, read off a plot): 0.6; ratio to parent ([4]; marked *): 2.3 fold; response (normalized biotin/FLAG) ([4]; parent: est. 0.85, read off a plot): 0.38; response (normalized biotin/FLAG) [5]: 1.1; response (normalized biotin/FLAG) [6]: 0.85; ratio to parent ([7]; marked *): 3.8 fold; response (normalized biotin/FLAG) ([7]; parent: est. 1.3, read off a plot): 0.45
O75367 (from UniProt O75367)	63600	–
O95630 (from UniProt O95630)	473	–
P01042 (from UniProt P01042)	110000	–
P01137 (from UniProt P01137)	7.2	–
P06400 (from UniProt P06400)	3900	–
P10451 (from UniProt P10451)	0.43	–
P14784 (from UniProt P14784)	750	–
P17535 (from UniProt P17535)	73000	–
P30279 (from UniProt P30279)	2500	–
P46108 (from UniProt P46108)	10200	–
P49137 (from UniProt P49137)	50	–
P61081 (from UniProt P61081)	1800	–
Q6NS38 (from UniProt Q6NS38)	240	–
Q8NHG7 (from UniProt Q8NHG7)	5880	–
Q8TEB9 (from UniProt Q8TEB9)	66500	–
Q8WUK0 (from UniProt Q8WUK0)	530	–

Substance	Kd [8] [nM]	also measured
Q9H0W5 (from UniProt Q9H0W5)	180	–
Q9H9L4 (from UniProt Q9H9L4)	8600	–
Q9NZM5 (from UniProt Q9NZM5)	23300	–
Q9UNA4 (from UniProt Q9UNA4)	300	–
Q9UQ84 (from UniProt Q9UQ84)	16500	–
Q9Y698 (from UniProt Q9Y698)	32500	–
Q52LA3 (from UniProt Q52LA3)	1400	–
Q86VZ6 (from UniProt Q86VZ6)	8900	–
Q96AE4 (from UniProt Q96AE4)	6000	–
Q96ST2 (from UniProt Q96ST2)	4700	–
Q01094 (from UniProt Q01094)	1060	–
Q13137 (from UniProt Q13137)	–	Kd [9]: 1600 nM
Q13309 (from UniProt Q13309)	3200	–
Q15004 (from UniProt Q15004)	–	Kd [10]: 1000 nM
Q15054 (from UniProt Q15054)	1700	–
Q92844 (from UniProt Q92844)	14000	–
Q99816 (from UniProt Q99816)	1000	–
